The values below come from patent publication US20040170630A1 (published 2004).

Changes are numbered by the printed parent chain.

For experiment [1], the target named is T1, recombinant heparanase 8 kDa/50 kDa heterodimer (baculovirus, insect cell expressed) (human, UniProt Q9Y251 36-109; Q9Y251 158-543).
T1 construct: domain: 8 kDa subunit;domain: 50 kDa subunit; Amplified from a mammary gland cDNA library; In one screening ELISA it was biotinylated; also called 8/50 heterodimer protein; purified recombinant heparanase
T1 sequence 1: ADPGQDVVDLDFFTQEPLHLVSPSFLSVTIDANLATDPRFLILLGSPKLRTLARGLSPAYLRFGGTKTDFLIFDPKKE
T1 sequence 2: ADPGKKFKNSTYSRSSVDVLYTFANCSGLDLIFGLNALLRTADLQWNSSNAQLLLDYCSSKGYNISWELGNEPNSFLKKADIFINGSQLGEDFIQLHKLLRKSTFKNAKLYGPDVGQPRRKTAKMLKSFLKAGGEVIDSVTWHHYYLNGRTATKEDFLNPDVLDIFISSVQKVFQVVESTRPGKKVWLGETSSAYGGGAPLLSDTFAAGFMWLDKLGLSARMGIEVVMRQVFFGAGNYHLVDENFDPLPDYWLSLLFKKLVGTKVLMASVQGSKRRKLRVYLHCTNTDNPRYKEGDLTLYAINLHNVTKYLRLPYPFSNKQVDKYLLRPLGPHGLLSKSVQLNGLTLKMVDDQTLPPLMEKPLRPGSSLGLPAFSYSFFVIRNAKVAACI
The experiment in a line: ELISA on coated recombinant heparanase and on biotin-heparanase captured by streptavidin; hybridoma supernatants. The method, then:
To select KM mice producing antibodies that bound heparanase, sera from immunized mice was tested by ELISA as described by Fishwild, D. et al. (1996). Briefly, microtiter plates were coated with purified recombinant heparanase from baculovirus at 1-2 μg /ml in PBS, 50 μl/wells incubated 4° C. overnight then blocked with 200 μl/well of 5% chicken serum in PBS/Tween (0.05%). Dilutions of plasma from heparanase-immunized mice were added to each well and incubated for 1-2 hours at ambient temperature. The plates were washed with PBS/Tween and then incubated with a goat-anti-human IgG Fc polyclonal antibody conjugated with horseradish peroxidase (HRP) for 1 hour at room temperature. After washing, the plates were developed with ABTS substrate (Sigma, A-1 888, 0.22 mg/ml) and analyzed by spectrophotometer at OD 415-495. Mice that developed the highest titers of anti-heparanase antibodies were used for fusions. Fusions were performed as described above and hybridoma supernatants were tested for anti-heparanase activity by ELISA. In order to select antibodies that bind to heparanase enzyme, an ELISA assay as described above and a biotinylated ELISA as described above with following modifications were applied. Briefly, ELISA plates were coated with streptavidin (Sigma catalog number: S-4762) at 1 μg/ml in PBS, 50 ul/well. After overnight incubation at 4° C., the plates were blocked with 200 μl/well of 5% chicken serum in PBS/Tween (0.05%). The plates were then washed with PBS/Tween three times. Biotin-heparanase was added to the plates at 1 μg/ml in PBS, 50 ul/well and then incubated for 1 hour at room temperature. 50 ul/well of the supernatants were then added to the plates and incubated for 1-2 hours at room temperature. The rest of the procedures were exactly the same as described above. Hybridomas secreting a monoclonal antibody that bound with high avidity to heparanase were selected for further characterization for enzymatic, motility and angiogenesis activities.

For experiment [2], the target named is T1, recombinant heparanase 8 kDa/50 kDa …. The experiment in a line: competition binding format.

B1: human monoclonal antibody 5G10 (antibody, V domains shown)
VH: QVQLVQSGAEVKKPGASVKVSCKVSGYTLTELSMHWVRQAPGKGLEWMGGFDPEDGETIYAQKFQGRVTMTEDTSTDTAYMELSSLRSEDTAVYYCATESLVRYFDWLSHFDYWGQGTLVTVSS
VL: DIQMTQSPSSLSASVGDRVTITCRASQGISSWLAWYQQKPEKAPKSLIYAASSLQSGVPSRFSGSGSGTDFTLTISSLQPEDFATYYCQQYNSYPYTFGQGTKLEIK
notes: Human IgG kappa from a KM mouse hybridoma; subclass not reported
On to B1, for which the binding result in experiment [1] was “binds”.

B2: human monoclonal antibody 13B2 (antibody, V domains shown)
VH: EVQLVESGGGLVQPGGSLRLSCAASGFTFSSYWMSWVRQAPGKGLEWVASIYQDGSEKYYVDSVKGRFTISRDNAKNSLYLQMNSLRAEDTAMYYCARELDWGWDYWGQGTLVTVSS
VL: B1 VL with D1A, M4L, W32A, E41G, S46L, A50D, Q55E, Y91F, Y96I, K103R
notes: as for B1
In the case of B2, the binding result in experiment [1] was “binds”.

B3: human monoclonal antibody 1E7 (antibody, V domains shown)
VH: B2 VH with M93V
VL: B1 VL with D1A, M4L, W32A, E41G, S46L, A50D, Q55E, Y91F, Y96I, K103R
notes: as for B1
In the case of B3, the binding result in experiment [1] is listed as “binds”.

B4: human monoclonal antibody 2H8 (antibody, V domains shown)
VH: B1 VH with G66D, A97T
VL: B1 VL
notes: as for B1
For B4, the binding result in experiment [1] is given as “binds”.

B5: human monoclonal antibody 22D9 (antibody, V domains shown)
VH: B1 VH with E89D
VL: B1 VL
notes: Fully human IgG with kappa light chain from a KM mouse hybridoma, purified by Protein A
Consider B5, for which the binding result in experiment [2] is recorded as “binds”.
